# Bridges are numbered along the chain shown (N, C = ends). [ ]: non-standard residue; d: D form. Pro(5R-Ph) = O=C(O)[C@@H]1CC[C@H](c2ccccc2)N1
# T1: CathepsinG, from human neutrophils (human, UniProt P08311 21-244)
# T1 sequence (looked up): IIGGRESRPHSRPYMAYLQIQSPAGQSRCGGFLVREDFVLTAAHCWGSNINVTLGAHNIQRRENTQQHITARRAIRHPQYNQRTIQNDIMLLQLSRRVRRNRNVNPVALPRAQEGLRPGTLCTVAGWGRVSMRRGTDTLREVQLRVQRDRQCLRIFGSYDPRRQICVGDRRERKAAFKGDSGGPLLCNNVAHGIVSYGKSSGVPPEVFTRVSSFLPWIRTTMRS
# T2: Elastase from human neutrophils (human, UniProt P08246 30-247, limits assumed)
# T2 sequence (looked up): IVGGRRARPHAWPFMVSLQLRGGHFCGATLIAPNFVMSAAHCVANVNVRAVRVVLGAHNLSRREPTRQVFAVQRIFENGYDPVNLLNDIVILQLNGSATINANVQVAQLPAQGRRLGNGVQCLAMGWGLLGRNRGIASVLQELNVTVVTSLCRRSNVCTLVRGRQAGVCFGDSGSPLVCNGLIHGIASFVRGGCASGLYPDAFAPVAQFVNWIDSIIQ
# T3: Chymase, from human skin (human, UniProt P23946 22-247)
# T3 sequence (looked up): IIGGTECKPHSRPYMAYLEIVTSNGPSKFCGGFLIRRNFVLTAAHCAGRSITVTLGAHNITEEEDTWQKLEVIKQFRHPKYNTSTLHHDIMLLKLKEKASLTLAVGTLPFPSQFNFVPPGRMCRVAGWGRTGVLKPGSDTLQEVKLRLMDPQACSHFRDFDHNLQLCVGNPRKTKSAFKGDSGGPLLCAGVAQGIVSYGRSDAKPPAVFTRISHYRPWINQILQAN
# Legend:
# Assay in all cases: cell-based or functional assay
# [1] = target: Urokinase from human urine (human, UniProt P00749 21-431, limits assumed)
# [2] = target: T1, CathepsinG, from human neutrophils
# [3] = target: T2, Elastase from human neutrophils
# [4] = target: T3, Chymase, from human skin
# [5] = target: Trypsin, Iodination grade, from human pancreas (human, UniProt P07477 24-247)
# [6] = target: Chymotrypsin, from human pancreas (human, UniProt P17538 19-263)
# Sequence of Chymotrypsin, from human pancreas (P17538 19-263): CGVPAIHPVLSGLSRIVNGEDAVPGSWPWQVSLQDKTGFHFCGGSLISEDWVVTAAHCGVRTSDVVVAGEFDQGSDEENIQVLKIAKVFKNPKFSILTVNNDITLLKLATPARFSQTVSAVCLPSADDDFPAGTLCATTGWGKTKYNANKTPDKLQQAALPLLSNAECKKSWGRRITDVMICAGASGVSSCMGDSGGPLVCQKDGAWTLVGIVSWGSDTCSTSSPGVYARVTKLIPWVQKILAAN
% inhibition at 100 µM [1],IC50 [2],IC50 [3],% inhibition at 100 µM [4],% inhibition at 100 µM [5],% inhibition at 100 µM [6],% inhibition at 100 µM [3],Binder
3.2%,66 nmol,> 100000 nmol,12.9%,90%,,,"FCTKSDPPXCS (HELM PEPTIDE1{F.C.T.K.S.D.P.P.[Cha].C.S.[dP].P}$PEPTIDE1,PEPTIDE1,2:R3-10:R3|PEPTIDE1,PEPTIDE1,1:R1-13:R2$$$V2.0; SMILES C[C@@H](O)[C@@H]1NC(=O)[C@@H]2CSSC[C@H](NC(=O)[C@H](CC3CCCCC3)NC(=O)[C@@H]3CCCN3C(=O)[C@@H]3CCCN3C(=O)[C@H](CC(=O)O)NC(=O)[C@H](CO)NC(=O)[C@H](CCCCN)NC1=O)C(=O)N[C@@H](CO)C(=O)N1CCC[C@@H]1C(=O)N1CCC[C@H]1C(=O)N[C@@H](Cc1ccccc1)C(=O)N2) [Example 54]"
,56 nmol,> 100000 nmol,12.7%,95%,,,"FCTKSDPPXCS (HELM PEPTIDE1{F.C.T.K.S.D.P.P.[Nle].C.S.[dP].P}$PEPTIDE1,PEPTIDE1,2:R3-10:R3|PEPTIDE1,PEPTIDE1,1:R1-13:R2$$$V2.0; SMILES CCCC[C@@H]1NC(=O)[C@@H]2CCCN2C(=O)[C@@H]2CCCN2C(=O)[C@H](CC(=O)O)NC(=O)[C@H](CO)NC(=O)[C@H](CCCCN)NC(=O)[C@H]([C@@H](C)O)NC(=O)[C@@H]2CSSC[C@H](NC1=O)C(=O)N[C@@H](CO)C(=O)N1CCC[C@@H]1C(=O)N1CCC[C@H]1C(=O)N[C@@H](Cc1ccccc1)C(=O)N2) [Example 15]"
,83 nmol,> 100000 nmol,,93%,3%,,cyclo(FCTKSDPPICS[dP][Pro(5R-Ph)]) (disulfide 2-10) [Example 48]
,89 nmol,> 100000 nmol,,94%,0%,,"FCTKSDPPICS (HELM PEPTIDE1{F.C.T.K.S.D.P.P.I.C.S.[dI].P}$PEPTIDE1,PEPTIDE1,2:R3-10:R3|PEPTIDE1,PEPTIDE1,1:R1-13:R2$$$V2.0; SMILES CC[C@@H](C)[C@H]1NC(=O)[C@H](CO)NC(=O)[C@@H]2CSSC[C@H](NC(=O)[C@H](Cc3ccccc3)NC(=O)[C@@H]3CCCN3C1=O)C(=O)N[C@@H]([C@@H](C)O)C(=O)N[C@@H](CCCCN)C(=O)N[C@@H](CO)C(=O)N[C@@H](CC(=O)O)C(=O)N1CCC[C@H]1C(=O)N1CCC[C@H]1C(=O)N[C@@H]([C@@H](C)CC)C(=O)N2) [Example 73]"
,89 nmol,> 100000 nmol,,94%,0%,,"FCTKSDPPICS (HELM PEPTIDE1{F.C.T.K.S.D.P.P.I.C.S.[dI].P}$PEPTIDE1,PEPTIDE1,2:R3-10:R3|PEPTIDE1,PEPTIDE1,1:R1-13:R2$$$V2.0; SMILES CC[C@@H](C)[C@H]1NC(=O)[C@H](CO)NC(=O)[C@@H]2CSSC[C@H](NC(=O)[C@H](Cc3ccccc3)NC(=O)[C@@H]3CCCN3C1=O)C(=O)N[C@@H]([C@@H](C)O)C(=O)N[C@@H](CCCCN)C(=O)N[C@@H](CO)C(=O)N[C@@H](CC(=O)O)C(=O)N1CCC[C@H]1C(=O)N1CCC[C@H]1C(=O)N[C@@H]([C@@H](C)CC)C(=O)N2) [Example 50]"
,126 nmol,,71.7%,74.2%,5.6%,0.8%,"RXTKSDPPIXF (HELM PEPTIDE1{R.[Nle].T.K.S.D.P.P.I.[Nle].F.[dP].P}$PEPTIDE1,PEPTIDE1,1:R1-13:R2$$$V2.0; SMILES CCCC[C@@H]1NC(=O)[C@H](CCCNC(=N)N)NC(=O)[C@@H]2CCCN2C(=O)[C@H]2CCCN2C(=O)[C@H](Cc2ccccc2)NC(=O)[C@H](CCCC)NC(=O)[C@H]([C@@H](C)CC)NC(=O)[C@@H]2CCCN2C(=O)[C@@H]2CCCN2C(=O)[C@H](CC(=O)O)NC(=O)[C@H](CO)NC(=O)[C@H](CCCCN)NC(=O)[C@H]([C@@H](C)O)NC1=O) [Example 8]"
3.2%,66 nmol,> 100000 nmol,12.9%,90%,,,"FCTKSDPPXCS (HELM PEPTIDE1{F.C.T.K.S.D.P.P.[Cha].C.S.[dP].P}$PEPTIDE1,PEPTIDE1,2:R3-10:R3|PEPTIDE1,PEPTIDE1,1:R1-13:R2$$$V2.0; SMILES C[C@@H](O)[C@@H]1NC(=O)[C@@H]2CSSC[C@H](NC(=O)[C@H](CC3CCCCC3)NC(=O)[C@@H]3CCCN3C(=O)[C@@H]3CCCN3C(=O)[C@H](CC(=O)O)NC(=O)[C@H](CO)NC(=O)[C@H](CCCCN)NC1=O)C(=O)N[C@@H](CO)C(=O)N1CCC[C@@H]1C(=O)N1CCC[C@H]1C(=O)N[C@@H](Cc1ccccc1)C(=O)N2) [Example 16]"
,97 nmol,16.4 nmol,5%,95.6%,2.6%,,"FCTKSEPPICS (HELM PEPTIDE1{F.C.T.K.S.E.P.P.I.C.S.[dP].P}$PEPTIDE1,PEPTIDE1,2:R3-10:R3|PEPTIDE1,PEPTIDE1,1:R1-13:R2$$$V2.0; SMILES CC[C@H](C)[C@@H]1NC(=O)[C@@H]2CCCN2C(=O)[C@@H]2CCCN2C(=O)[C@H](CCC(=O)O)NC(=O)[C@H](CO)NC(=O)[C@H](CCCCN)NC(=O)[C@H]([C@@H](C)O)NC(=O)[C@@H]2CSSC[C@H](NC1=O)C(=O)N[C@@H](CO)C(=O)N1CCC[C@@H]1C(=O)N1CCC[C@H]1C(=O)N[C@@H](Cc1ccccc1)C(=O)N2) [Example 21]"
,100 nmol,,19.9%,95%,,8.2%,"XCTKSDPPICR (HELM PEPTIDE1{[O=C([C@H](Cc1ccccc1Cl)N[*:1])[*:2]].C.T.K.S.D.P.P.I.C.R.[dP].P}$PEPTIDE1,PEPTIDE1,2:R3-10:R3|PEPTIDE1,PEPTIDE1,1:R1-13:R2$$$V2.0; SMILES CC[C@H](C)[C@@H]1NC(=O)[C@@H]2CCCN2C(=O)[C@@H]2CCCN2C(=O)[C@H](CC(=O)O)NC(=O)[C@H](CO)NC(=O)[C@H](CCCCN)NC(=O)[C@H]([C@@H](C)O)NC(=O)[C@@H]2CSSC[C@H](NC1=O)C(=O)N[C@@H](CCCNC(=N)N)C(=O)N1CCC[C@@H]1C(=O)N1CCC[C@H]1C(=O)N[C@@H](Cc1ccccc1Cl)C(=O)N2) [Example 13]"
,75 nmol,,9.4%,89.9%,,0.3%,"XCTKSDPPICS (HELM PEPTIDE1{[Nle].C.T.K.S.D.P.P.I.C.S.[dP].P}$PEPTIDE1,PEPTIDE1,2:R3-10:R3|PEPTIDE1,PEPTIDE1,1:R1-13:R2$$$V2.0; SMILES CCCC[C@@H]1NC(=O)[C@@H]2CCCN2C(=O)[C@H]2CCCN2C(=O)[C@H](CO)NC(=O)[C@@H]2CSSC[C@H](NC1=O)C(=O)N[C@@H]([C@@H](C)O)C(=O)N[C@@H](CCCCN)C(=O)N[C@@H](CO)C(=O)N[C@@H](CC(=O)O)C(=O)N1CCC[C@H]1C(=O)N1CCC[C@H]1C(=O)N[C@@H]([C@@H](C)CC)C(=O)N2) [Example 10]"
,95 nmol,,12.1%,6.5%,73.6%,19%,"XCTKSDPPICS (HELM PEPTIDE1{[O=C([C@@H](N[*:1])C1CCCCC1)[*:2]].C.T.K.S.D.P.P.I.C.S.[dP].P}$PEPTIDE1,PEPTIDE1,2:R3-10:R3|PEPTIDE1,PEPTIDE1,1:R1-13:R2$$$V2.0; SMILES CC[C@H](C)[C@@H]1NC(=O)[C@@H]2CCCN2C(=O)[C@@H]2CCCN2C(=O)[C@H](CC(=O)O)NC(=O)[C@H](CO)NC(=O)[C@H](CCCCN)NC(=O)[C@H]([C@@H](C)O)NC(=O)[C@@H]2CSSC[C@H](NC1=O)C(=O)N[C@@H](CO)C(=O)N1CCC[C@@H]1C(=O)N1CCC[C@H]1C(=O)N[C@@H](C1CCCCC1)C(=O)N2) [Example 11]"

# Reference: patent US20140213531A1 (POLYPHOR, published 2014)
